In US20180346594A1:
Blank lines part the entries; values can stand above or below the substance they belong to.

How the values were obtained:
[1] = molecular target: 16C3 antigen (human colorectal and pancreatic carcinoma-associated antigen, CPAA, recognized by the 16C3 antibody) (human); experiment: FACS, AsPC-1 cells, 1 ug antibody
[2] = molecular target: 16C3 antigen (human colorectal and pancreatic carcinoma-associated antigen, CPAA, recognized by the 16C3 antibody) (human); experiment: FACS, AsPC-1 cells, 5 uL
[3] = molecular target: 16C3 antigen (human colorectal and pancreatic carcinoma-associated antigen, CPAA, recognized by the 16C3 antibody) (human); experiment: FACS, AsPC-1 cells, 4 ng antibody
[4] = molecular target: 16C3 antigen (human colorectal and pancreatic carcinoma-associated antigen, CPAA, recognized by the 16C3 antibody) (human); experiment: FACS, AsPC-1 cells, 100 ng antibody
[5] = molecular target: 16C3 antigen (human colorectal and pancreatic carcinoma-associated antigen, CPAA, recognized by the 16C3 antibody) (human); experiment: FACS, AsPC-1 cells, 0.8 ng antibody
[6] = molecular target: 16C3 antigen (human colorectal and pancreatic carcinoma-associated antigen, CPAA, recognized by the 16C3 antibody) (human); experiment: FACS, CFPAC-1 pancreatic cells
[7] = molecular target: 16C3 antigen (human colorectal and pancreatic carcinoma-associated antigen, CPAA, recognized by the 16C3 antibody) (human); experiment: FACS, HT-29 colorectal cells
[8] = molecular target: 16C3 antigen (human colorectal and pancreatic carcinoma-associated antigen, CPAA, recognized by the 16C3 antibody) (human); experiment: FACS, AsPC-1 pancreatic cells
[9] = molecular target: 16C3 antigen (human colorectal and pancreatic carcinoma-associated antigen, CPAA, recognized by the 16C3 antibody) (human); experiment: FACS, LS174T colorectal cells
[10] = molecular target: 16C3 antigen (human colorectal and pancreatic carcinoma-associated antigen, CPAA, recognized by the 16C3 antibody) (human); experiment: FACS, AsPC-1 cells, 20 ng antibody
[11] = molecular target: 16C3 antigen (human colorectal and pancreatic carcinoma-associated antigen, CPAA, recognized by the 16C3 antibody) (human); experiment: FACS, CFPAC-1 pancreatic cells, secondary antibody only
[12] = molecular target: 16C3 antigen (human colorectal and pancreatic carcinoma-associated antigen, CPAA, recognized by the 16C3 antibody) (human); experiment: FACS, AsPC-1 pancreatic cells, secondary antibody only
[13] = molecular target: 16C3 antigen (human colorectal and pancreatic carcinoma-associated antigen, CPAA, recognized by the 16C3 antibody) (human); experiment: FACS, LS174T cells, secondary antibody only
[14] = molecular target: 16C3 antigen (human colorectal and pancreatic carcinoma-associated antigen, CPAA, recognized by the 16C3 antibody) (human); experiment: FACS, AsPC-1 cells, secondary antibody only
[15] = molecular target: 16C3 antigen (human colorectal and pancreatic carcinoma-associated antigen, CPAA, recognized by the 16C3 antibody) (human); experiment: FACS, LS174T colorectal cells, secondary antibody only
[16] = molecular target: 16C3 antigen (human colorectal and pancreatic carcinoma-associated antigen, CPAA, recognized by the 16C3 antibody) (human); experiment: FACS, HT-29 colorectal cells, secondary antibody only
[17] = molecular target: 16C3 antigen (human colorectal and pancreatic carcinoma-associated antigen, CPAA, recognized by the 16C3 antibody) (human); experiment: FACS, CFPAC-1 cells, secondary antibody only

- % AsPC-1 Cells Stained [1]: 89.5%
- mfi [1]: 138 mfi
- % AsPC-1 Cells Stained [2]: 81.4%
- mfi [2]: 34 mfi
- % AsPC-1 tumor cell binding [3]: 4.26%
- MFI [3]: 52 MFI
- % AsPC-1 tumor cell binding [4]: 61.7%
- MFI [4]: 228 MFI
- % AsPC-1 tumor cell binding [5]: 1.28%
- MFI [5]: 615 MFI
- % Cell Staining [6]: 96.2%
- mfi [6]: 323 mfi
- % Cell Staining [7]: 91%
- mfi [7]: 78 mfi
- % Cell Staining [8]: 69.9%
- mfi [8]: 36 mfi
- % Cell Staining [9]: 40.6%
- mfi [9]: 59 mfi
- % AsPC-1 tumor cell binding [10]: 47.9%
- MFI [10]: 69 MFI
Substance: 16C3 mAb (murine monoclonal antibody, IgG1 heavy chain, kappa light chain)

- % Cell Staining [11]: 0.83%
- mfi [11]: 14 mfi
- % Cell Staining [12]: 2.68%
- mfi [12]: 30 mfi
- % LS174T tumor cell binding [13]: 1.63%
- MFI [13]: 43 MFI
- % AsPC-1 Cells Stained [14]: 1.01%
- % AsPC-1 tumor cell binding [14]: 1.55%
- MFI [14]: 70 MFI
- mfi [14]: 8 mfi
- % Cell Staining [15]: 0.94%
- mfi [15]: 15 mfi
- % Cell Staining [16]: 0.84%
- mfi [16]: 10 mfi
Substance: Goat anti-Mouse IgG-FITC control (fluorescein-labelled goat anti-mouse antibody, secondary reagent alone)

- % binding to LS174T cells [13]: 3.49%
- mfi [13]: 33 mfi
- % AsPC-1 tumor cell binding [14]: 2.05%
- MFI [14]: 59 MFI
- % binding to CFPAC-1 cells [17]: 2.1%
- mfi [17]: 20 mfi
Substance: Rabbit anti-Human IgG-FITC control (secondary reagent alone) (antibody)
